Molecular target: GFP [GFP: P42212]
Experiment: sandwich cD-IPCR: GFP in buffer captured by anti-GFP pAb on plate, bound cDNA display quantified by qPCR (ΔCt)

cDNA display presenting anti-GFP VHH (LaG-16), sequence (VHH): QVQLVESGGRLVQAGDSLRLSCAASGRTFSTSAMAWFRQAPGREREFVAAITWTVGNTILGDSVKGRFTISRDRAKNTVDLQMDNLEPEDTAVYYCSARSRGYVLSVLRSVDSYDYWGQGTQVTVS

## cDNA display presenting anti-GFP VHH (LaG-16)
  lowest detected GFP concentration (sandwich cD-IPCR): 10 ng/mL

Source: US20210381026A1
